Test results taken from PMC8568656.

Target: DOPAL-derived αS oligomers (αS incubated with 3,4-dihydroxyphenylacetaldehyde)
Test: SDS-PAGE of SEC fractions

**Q.** Which stoichiometry N does the source give for “DOPAL-derived αS oligomers (αS incubated with 3,4-dihydroxyphenylacetaldehyde)” here?
**A.** The stoichiometry N was 2.
